Source: patent US20150218286A1

Biological target: CD22 (human) (UniProt P20273)
Test: cell-based or functional assay

Row | Substance | LC50, 697 cells (ALL), second series | LC50, EU cells (ALL), second series | LC50, KOPN 8 cells (ALL), second series | LC50, NALM 6 cells (ALL), second series | LC50, RAJI cells (Burkitt), second series | LC50, REH cells (ALL), second series | LC50, 697 cells (ALL) | LC50, EU cells (ALL) | LC50, KOPN 8 cells (ALL) | LC50, NALM 6 cells (ALL) | LC50, RAJI cells (Burkitt) | LC50, REH cells (ALL)
1 | HA22-LR-8X | 1 ng/mL | 0.3 ng/mL | 0.4 ng/mL | 2 ng/mL | 0.2 ng/mL | 0.5 ng/mL | – | – | – | – | – | –
2 | HA22-LR-KDEL | – | – | – | – | – | – | 0.2 ng/mL | 0.3 ng/mL | 0.3 ng/mL | 1 ng/mL | 0.2 ng/mL | 0.2 ng/mL
